Data as given in the supplement of paper PMC9170038.

Tested on: MS2 coat protein
Assay: apparent KD of MS2 coat protein; designed switch direction (-1 OFF switch, 1 ON switch): 1; higher = weaker reporter binding
Method in brief: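 Three titration conditions were used: no input, 200 uM small-molecule ligand, and an oligonucleotide input. In each, SNAP-549-labelled MS2 coat protein was raised from 0.7 or 1.5 nM, doubling, to 3 µM over designed RNA switches transcribed on Illumina chips by stalled E. coli RNA polymerase. Curve fits of normalised cluster fluorescence gave values whose per-design median over clusters is the apparent KD.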

[1] = input ligand: microRNA oligo, concentration not stated
[2] = Eterna round: R95, input ligand: FMN 200 uM
[3] = Eterna round: R95, input ligand: microRNA oligo, concentration not stated
[4] = Eterna round: R95, input ligand: none

Sequence	apparent KD of MS2 coat protein (input ligand: FMN 200 uM) [nM]	apparent KD of MS2 coat protein [1] [nM]	apparent KD of MS2 coat protein (input ligand: none) [nM]	apparent KD of MS2 coat protein [2] [nM]	apparent KD of MS2 coat protein [3] [nM]	apparent KD of MS2 coat protein [4] [nM]
GUUUCAUCGAAAGGAUAUGUAUUGAUUGCCAUUGCAGAAGGUUCUCAGACAUGAGGAUCACCCAUGUCAAGCGGAAACGUAGUA [Eternabot solution 37] (Eterna round: R96, puzzle: Same State NG 1)	20.1	15.4	47.6			
UAAACUUCUUUUAGUGUGUUGCCAGUUUUACAUGAGGAUCACCCAUGUUAAGUAUUGUGGUAUUUUGUUCGUCUUAA [JR_SHM208A_Sub074] (puzzle: Sensor for hsa-mir-208a)				15.2	14.2	15.3
UAAAGUUAGCGAGGAUAUCGUUUAUUGAAGUUACGAGAAGGCGCUCUUCUUACAUGAGGAUCACCCAUGUCUGUUUUGCAUGAU [JR_SSNG1_Sub067] (Eterna round: R96, puzzle: Same State NG 1)	52	63	71.3			
UAAAUAAAGUAAGGAUAUACAUGAGGAUCUCUCGUAGAAGGUACUAUACAUGAGGAUCACCCAUGUGCCGGUCAAUAGACUGGA [Mat - Same State NG 1 - JL mod - D9] (Eterna round: R96, puzzle: Same State NG 1)	589	131	446			
UAAGUAUGUUGAGGAUAUUAUGUUUGGUGAGAUGACAUGAGGAUCACCCAUGUGUUAUCAGUUCUUAAGAAGGCAACAUACUUA [JR_SSNG2_Sub092] (Eterna round: R96, puzzle: Same State NG 2)		20				
UAAGUCAUGUAAGGAUAUGCAGCCGAAACGGCUGCAGAAGGUACUAUAAUUACAUGAGGAUCACCCAUGUUAUAAAAUUAAAAU [Mat - Same State NG 1 - JL mod - D79] (Eterna round: R96, puzzle: Same State NG 1)	20.8	31.1	57.3			
UAAUUAAGUCAAGGAUAUCACGUCGUUUAGACGUGAGAAGGUGACCAAUACAUGAGGAUCACCCAUGUAAUACAUGAAUAAUUA [SSNG1/12-B3] (Eterna round: R96, puzzle: Same State NG 1)	35.5	46.9	51.4			
UACAAUCUAUCUGAGGAUAUCAUGAAUAAAACAUGAGGAUCACCCAUGUGCAGGAAAACUGCAUAUGAGAAGGCAGAUAGAUUGA [Mat - Same State 2 - Mod - D12] (puzzle: Same State 2)				45.9	411	1450
UACAAUCUAUCUGAGGAUAUCAUGAAUAAAACAUGAGGAUCACCCAUGUGCAGGAAAACUGCAUAUGAGAAGGCAGAUAGAUUGU [salish99_ss2_r3_067] (puzzle: Same State 2)				45.9	181	556
UACAAUCUAUCUGAGGAUAUCAUGAUUAUAACAUGAGGAUCACCCAUGUGCAGGAAAACUGCAUAUGAGAAGGCAGAUAGAUUGU [salish99_ss2_r3_069] (Eterna round: R96, puzzle: Same State 2)	228	116	232			
UACAAUCUAUCUGAGGAUAUCAUGAUUAUAACAUGAGGAUCACCCAUGUGCAGGAAAACUGCAUAUGAGAAGGCAGAUAGAUUGU [salish99_ss2_r3_069] (puzzle: Same State 2)				228	1630	110
UACAUACGCGGAGGAUAUGGGCGAGGCGCAGAGGUCUGCACCAAAACAUGAGGAUCACCCAUGUCCCAGAAGGCCGCACAAACU [Onageenza] (Eterna round: R96, puzzle: Same State NG 2)	19.9	48.8	71.9			
UACAUACGCGGAGGAUAUGGGCGAGGCGCGGAGGUCCGCGCCAAAACAUGAGGAUCACCCAUGUCCCAGAAGGCCGCACAAACU [Atusso] (Eterna round: R96, puzzle: Same State NG 2)	15.1	66.4	86.6			
UAGAAACAUGAGGAUCACCCAUGUGUCAAAGACAUAGGAUAUCACGACUGGAGUCAAUCGUGAGAAGGGUGGUAAA [Usra] (puzzle: Same State 1)				92.3	19.4	38.7
UAGAAACAUGAGGAUCACCCAUGUGUCAAAGACAUAGGAUAUCACGGCUAAAAUCAGCCGUGAGAAGGGUGGUAAA [Aisbira] (puzzle: Same State 1)				57.1	61.1	56.2
UAGAAACAUGAGGAUCACCCAUGUGUCAGAGACAUAGGAUAUCGUAACCAGCGCCGGAUACGAGAAGGGUGGUAAA [Enraxe] (puzzle: Same State 1)				156	38.5	51.3

Sequence	apparent KD of MS2 coat protein (input ligand: FMN 200 uM) [nM]	apparent KD of MS2 coat protein [1] [nM]	apparent KD of MS2 coat protein (input ligand: none) [nM]	apparent KD of MS2 coat protein [2] [nM]	apparent KD of MS2 coat protein [3] [nM]	apparent KD of MS2 coat protein [4] [nM]
UAGAACAAGCUUUUUGCCCGUCUUAUAUAACAUGAGGAUCACCCAUGUAAGGUGAAAGUUAGAGAGUGGAGGAAGAA [JR_SHM208A_Sub053] (puzzle: Sensor for hsa-mir-208a)				95.3	272	123
UAGAAUCUAUCUCAGGAUAUCAUGUCAAAGACAUGAGGAUCACCCAUGUACCAGGAAACUGGUUAUGAGAAGGGAGAUAGAUUCU [Mat - Same State 2 - Mod - D33] (puzzle: Same State 2)				160	158	281
UAGAGAGGAAGCGAGGAUAUCGUGUGAGGUACAUGAGGAUCACCCAUGUUUGAUGUUGAGAGAGGCGAGAAGGCGCAGGAGAAAA [JR_SS2_Sub086] (puzzle: Same State 2)				30.8	24.9	38.7
UAGAGAGGAAGCGAGGAUAUCGUGUUAGGUACAUGAGGAUCACCCAUGUUGUAGGUAGAGGUAGGCGAGAAGGCGCAGGAGAGGU [JR_SS2_Sub094] (puzzle: Same State 2)				33.4	38.8	41.4
UAGCUCGUGUGAGGAUAUGCCGCCGUUUCGGCUGCAGAAGGUGCUACGUUACAUGAGGAUCACCCAUGUCUCUGUUGUUUCGUU [salish99_SSNG1_r04_956] (Eterna round: R96, puzzle: Same State NG 1)	21.5	17.5	23.1			
UAGUGCAUUAGAGGAUAUUCUUACGAAAACGUAAAGACAUGAGGAUCACCCAUGUUGUCACAUGGGAAGAAGGCUGAUGUGCUA [Omei SS(NG)2 Bv3] (Eterna round: R96, puzzle: Same State NG 2)	26.3	117	148			
UAUCAUUACACGAAGGAUAUCGAUAAUUGAACAUGAGGAUCACCCAUGUGAUAUAUUUUACAGUUCGAGAAGGUCGAGGGUGAAG [JR_SS002_Sub705] (Eterna round: R96, puzzle: Same State 2)		28.5				
UAUCCAUAGAUAGGAUAUUAGUGAACAUGAGGAUCACCCAUGUUUGGCUUGGUUUUAAGCUAAUCUGAGAAGGAUCUUGAUGAA [SameState NG2 #7] (Eterna round: R96, puzzle: Same State NG 2)	150	98.5	164			
UAUGAACAUGAGGAUCACCCAUGUGGAAAGGACACAGGAUAUCACCUCGGACGUGCGAUGUGAGAAGGGUGAUGGU [Anrelari] (puzzle: Same State 1)				260	103	125
UAUGCACAUGAGGAUCACCCAUGUGAUAGAAUCACAGGAUAUCACCUCGGACGUGCGAUGUGAGAAGGGUGGUCGU [Same State 1 - Mod of Vinnie Anrelari v.4] (puzzle: Same State 1)				150	63.1	124
UAUGCACAUGAGGAUCACCCAUGUGGUAAGACCACAGGAUAUCACCUCGGACGUGCGAUGUGAGAAGGGUGAUGGU [Same State 1 - Mod of Vinnie Anrelari v.3] (puzzle: Same State 1)				491	289	379
UAUUUAAUCAUAGGAUAUAGUGUGAAAUUUGGACUAGAAGGAUGUAACAUGAGGAUCACCCAUGUGGUAAGUGGGACACAGUGU [JR_SSNG1_Sub095] (Eterna round: R96, puzzle: Same State NG 1)	164	69.4	141			
UCAAGCUUUUUGCUCGUUUUAUGUGUUGAACAUGAGGAUCACCCAUGUAUUGUACGAUCCAGUUAGAUGGUAAUUUG [JR_SHM208A_Sub041] (puzzle: Sensor for hsa-mir-208a)				62.5	140	79.8
UCAAUCAUGUAAGGAUAUGCAGCCGAAACGGCUGCAGAAGGUACUAUAAUUACAUGAGGAUCACCCAUGUUAUAAAAUUUAAAU [Mat - Same State NG 1 - JL mod - D68] (Eterna round: R96, puzzle: Same State NG 1)	35.5	46	123			
UCAAUCAUGUAAGGAUAUGCAGCCGUUUCGGCUGCAGAAGGUACUAUAAUUACAUGAGGAUCACCCAUGUUAUAAAAUUUAUAU [JL SSNG1 1.26] (Eterna round: R96, puzzle: Same State NG 1)	33.6	101	217			
